# Target: β-tubulin (porcine, UniProt P02554 1-445)
# Assay: mass photometry; label-free, in free solution; tubulin diluted in BRB80 buffer to 1 to 60 nM total monomer, no added GTP; 20 min equilibration after dilution (also measured immediately after dilution); Kd computed from counts of monomers and dimers in each single distribution; heterodimer to monomers
# Conditions: both partners purified
# Chain of β-tubulin (P02554 whole entry): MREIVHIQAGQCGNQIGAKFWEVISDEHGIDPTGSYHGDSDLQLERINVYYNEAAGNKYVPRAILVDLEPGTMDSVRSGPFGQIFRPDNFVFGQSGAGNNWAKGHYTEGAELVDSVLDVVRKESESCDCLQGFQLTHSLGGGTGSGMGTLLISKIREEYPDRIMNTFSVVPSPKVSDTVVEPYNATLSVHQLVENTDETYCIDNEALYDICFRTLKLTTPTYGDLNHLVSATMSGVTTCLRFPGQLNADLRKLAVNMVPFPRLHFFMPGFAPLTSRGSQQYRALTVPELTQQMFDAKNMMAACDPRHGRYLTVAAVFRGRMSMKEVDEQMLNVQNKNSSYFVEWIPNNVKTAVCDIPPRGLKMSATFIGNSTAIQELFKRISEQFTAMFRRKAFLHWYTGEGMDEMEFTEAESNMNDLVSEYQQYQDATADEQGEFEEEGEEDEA
binder,measurement,value
"α-tubulin (natural protein, Brain-purified isotype mixture, isotype not named; TUBA1A taken as representative by convention. Native brain PTMs are likely but not specified. GTP at the non-exchangeable site as purified; the …) MRECISIHVGQAGVQIGNACWELYCLEHGIQPDGQMPSDKTIGGGDDSFNTFFSETGAGKHVPRAVFVDLEPTVIDEVRTGTYRQLFHPEQLITGKEDAANNYARGHYTIGKEIIDLVLDRIRKLADQCTGLQGFSVFHSFGGGTGSGFTSLLMERLSVDYGKKSKLEFSIYPAPQVSTAVVEPYNSILTTHTTLEHSDCAFMVDNEAIYDICRRNLDIERPTYTNLNRLIGQIVSSITASLRFDGALNVDLTEFQTNLVPYPRAHFPLATYAPVISAEKAYHEQLSVAEITNACFEPANQMVKCDPRHGKYMACCLLYRGDVVPKDVNAAIATIKTKRTIQFVDWCPTGFKVGINYEPPTVVPGGDLAKVQRAVCMLSNTTAIAEAWARLDHKFDLMYAKRAFVHWYVGEGMEEGEFSEAREDMAALEKDYEEVGVDSVEGEGEEEGEEY",dimer:monomer ratio at 60 nM total tubulin,~2

# Reference: publication PMC7763485, “Quantifying the Monomer–Dimer Equilibrium of Tubulin with Mass Photometry” (Journal of Molecular Biology, 2020)
